Values belong to the binder of their own block, whether it stands above or below them.
Columns and labels:
AKT2 = molecular target: T1, AKT2 (human, UniProt P31751 1-481); assay: multiplex in situ PLA on fixed human breast cancer cells with or without EGF
T1 construct: Endogenous protein in fixed human breast cancer cells (isPLA)
Description: (§1) Detection was performed in three imaging rounds with stripping of the specific fluorescently-labelled detection probe between rounds. DAPI staining is shown in each image. Three isPLA reactions are detected per round using either a FITC, Cy3 or Cy5 filter. The isPLA assays target protein phosphorylation-protein or protein-protein interactions.
(§2) In situ PLA probes using the set-up illustrated in FIG. 3 were generated to target protein-protein interactions or protein-protein phosphorylation targets. Each isPLA probe set contains a unique oligonucleotide sequence that is complimentary to a fluorescent-conjugated detection oligonucleotide. The detection oligos are conjugated to either FITC, Cy3 or Cy5.
(§3) Following probe incubation, the padlocks were circularised by ligation, subjected to RCA to generate RCA products and detected with fluorescently labelled detection probes. Detection was performed in three rounds (see FIG. 11). […] Next, the detection oligos were stripped and new detection oligos were added targeting phosphorylated Grb2, phosphorylated Pi3K and phosphorylated STAT3. The same procedure was repeated again to detect phosphorylated Pi3K-PanAKT interaction, STAT5a-JAK2 interaction and JAK1-JAK3 interaction.

JAK2 = molecular target: T2, JAK2 (human, UniProt O60674 1-1132); assay: as above
T2 construct: Endogenous protein in fixed human breast cancer cells (isPLA)
Description: as §1, §2, §3

Beta-catenin = molecular target: T3, Beta-catenin (UniProt P35222 2-781); assay: in situ proximity ligation assay on fixed MCF-7 cells, with blocking oligonucleotide 13+13, RCA and Cy5 detection
T3 construct: Endogenous protein in fixed MCF-7 cells, detected through a primary antibody and oligonucleotide-conjugated secondary antibodies (in situ PLA); also called Beta-caternin
T3 sequence (looked up): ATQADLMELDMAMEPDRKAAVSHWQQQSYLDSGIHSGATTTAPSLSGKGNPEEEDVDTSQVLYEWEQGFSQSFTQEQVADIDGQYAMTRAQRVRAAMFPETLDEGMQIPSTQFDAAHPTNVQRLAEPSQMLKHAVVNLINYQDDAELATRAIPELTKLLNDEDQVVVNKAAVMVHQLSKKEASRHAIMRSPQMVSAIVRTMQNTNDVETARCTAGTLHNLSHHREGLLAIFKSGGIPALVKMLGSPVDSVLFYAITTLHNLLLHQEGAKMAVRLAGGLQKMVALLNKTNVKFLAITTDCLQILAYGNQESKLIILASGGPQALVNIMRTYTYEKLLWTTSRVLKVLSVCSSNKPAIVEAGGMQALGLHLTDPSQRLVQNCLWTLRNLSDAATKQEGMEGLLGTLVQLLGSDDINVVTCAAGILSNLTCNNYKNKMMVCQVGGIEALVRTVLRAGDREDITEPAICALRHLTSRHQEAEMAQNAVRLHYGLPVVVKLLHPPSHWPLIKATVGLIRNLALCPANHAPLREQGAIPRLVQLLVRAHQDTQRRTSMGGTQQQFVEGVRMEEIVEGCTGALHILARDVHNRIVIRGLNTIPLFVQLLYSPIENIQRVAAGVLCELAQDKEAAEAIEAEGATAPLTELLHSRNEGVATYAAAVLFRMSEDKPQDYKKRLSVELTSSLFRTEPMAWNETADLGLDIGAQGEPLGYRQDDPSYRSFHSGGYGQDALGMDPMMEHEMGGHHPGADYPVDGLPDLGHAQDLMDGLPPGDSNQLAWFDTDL
Description: The validation of the design was performed on MCF-7 cells, using a high concentration of proximity probes (conjugated secondary antibodies), probe A: anti-Mouse, with padlocks hybridized; probe B: anti-Rabbit with ligation templates (24 nt hybridization site, 12 nt on each end), 50 nM each). After incubation the fixed MCF-7 cells with (one or both primary antibody for Beta-caternin and E-cadherin) or without the primary antibodies (-primary) and washing, the secondary antibodies with (1 uM blocking oligos, 13 nt hybridization site on both ends) or without blocking oligos were applied to the MCF-7 cells.
When the probe A and B bind in close proximity, the blocking oligonucleotide can be competed away. The signal here results from the rolling cycle amplification products, representing the close proximity of Beta-catenin and E-cadherin detected by Cy5 labelled detection oligonucleotides, the nuclei were stained with DAPI.

T2 sequence (O60674 whole entry): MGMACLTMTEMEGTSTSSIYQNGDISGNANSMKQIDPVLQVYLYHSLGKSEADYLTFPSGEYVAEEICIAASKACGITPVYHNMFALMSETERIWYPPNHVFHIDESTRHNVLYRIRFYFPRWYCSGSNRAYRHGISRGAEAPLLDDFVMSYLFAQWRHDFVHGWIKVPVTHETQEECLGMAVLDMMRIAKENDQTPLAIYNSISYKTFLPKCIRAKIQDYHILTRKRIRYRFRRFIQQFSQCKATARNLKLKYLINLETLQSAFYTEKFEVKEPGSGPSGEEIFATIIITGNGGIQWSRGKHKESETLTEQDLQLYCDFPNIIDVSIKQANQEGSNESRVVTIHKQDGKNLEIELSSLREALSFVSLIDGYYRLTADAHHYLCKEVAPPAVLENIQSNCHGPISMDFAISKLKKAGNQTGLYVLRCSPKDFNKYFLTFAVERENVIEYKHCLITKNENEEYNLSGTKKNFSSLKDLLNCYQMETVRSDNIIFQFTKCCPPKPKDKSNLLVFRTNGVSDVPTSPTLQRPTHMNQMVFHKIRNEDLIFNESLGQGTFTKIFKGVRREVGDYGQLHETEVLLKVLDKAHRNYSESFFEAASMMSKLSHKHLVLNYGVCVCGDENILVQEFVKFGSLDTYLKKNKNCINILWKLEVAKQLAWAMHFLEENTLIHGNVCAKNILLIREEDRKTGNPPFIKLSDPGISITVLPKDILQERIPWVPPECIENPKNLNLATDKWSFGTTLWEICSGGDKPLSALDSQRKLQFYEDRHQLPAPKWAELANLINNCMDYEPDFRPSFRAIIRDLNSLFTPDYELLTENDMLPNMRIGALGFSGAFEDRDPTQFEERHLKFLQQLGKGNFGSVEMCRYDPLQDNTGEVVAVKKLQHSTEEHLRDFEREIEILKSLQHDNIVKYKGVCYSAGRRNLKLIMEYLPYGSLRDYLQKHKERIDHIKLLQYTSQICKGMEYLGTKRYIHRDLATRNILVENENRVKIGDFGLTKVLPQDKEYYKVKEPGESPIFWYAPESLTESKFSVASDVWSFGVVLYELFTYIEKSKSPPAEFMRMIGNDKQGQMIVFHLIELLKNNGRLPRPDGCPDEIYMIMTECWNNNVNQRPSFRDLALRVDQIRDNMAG
T1 sequence (P31751 whole entry): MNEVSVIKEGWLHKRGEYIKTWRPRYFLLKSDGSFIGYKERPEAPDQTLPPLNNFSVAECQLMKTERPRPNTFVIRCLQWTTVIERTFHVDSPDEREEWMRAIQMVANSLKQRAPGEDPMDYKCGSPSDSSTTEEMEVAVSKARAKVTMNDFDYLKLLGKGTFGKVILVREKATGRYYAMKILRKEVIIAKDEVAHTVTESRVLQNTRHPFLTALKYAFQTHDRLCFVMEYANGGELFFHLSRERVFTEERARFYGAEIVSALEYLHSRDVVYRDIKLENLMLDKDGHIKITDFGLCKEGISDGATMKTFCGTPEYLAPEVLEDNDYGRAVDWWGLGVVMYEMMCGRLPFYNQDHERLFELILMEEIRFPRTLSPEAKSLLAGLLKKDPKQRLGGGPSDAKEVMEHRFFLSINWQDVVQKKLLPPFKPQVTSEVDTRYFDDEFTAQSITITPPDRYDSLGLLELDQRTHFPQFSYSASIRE

binding result (AKT2): binds
B1: AKT3 (enzyme, human, UniProt Q9Y243 2-479, looked up)
chain: SDVTIVKEGWVQKRGEYIKNWRPRYFLLKTDGSFIGYKEKPQDVDLPYPLNNFSVAKCQLMKTERPKPNTFIIRCLQWTTVIERTFHVDTPEEREEWTEAIQAVADRLQRQEEERMNCSPTSQIDNIGEEEMDASTTHHKRKTMNDFDYLKLLGKGTFGKVILVREKASGKYYAMKILKKEVIIAKDEVAHTLTESRVLKNTRHPFLTSLKYSFQTKDRLCFVMEYVNGGELFFHLSRERVFSEDRTRFYGAEIVSALDYLHSGKIVYRDLKLENLMLDKDGHIKITDFGLCKEGITDAATMKTFCGTPEYLAPEVLEDNDYGRAVDWWGLGVVMYEMMCGRLPFYNQDHEKLFELILMEDIKFPRTLSSDAKSLLSGLLIKDPNKRLGGGPDDAKEIMRHSFFSGVNWQDVYDKKLVPPFKPQVTSETDTRYFDEEFTAQTITITPPEKYDEDGMDCMDNERRPHFPQFSYSASGRE
notes: Endogenous protein in fixed human breast cancer cells (isPLA)

binding result (JAK2): binds
B2: STAT5a (other, human, UniProt P42229 1-794, looked up)
chain: MAGWIQAQQLQGDALRQMQVLYGQHFPIEVRHYLAQWIESQPWDAIDLDNPQDRAQATQLLEGLVQELQKKAEHQVGEDGFLLKIKLGHYATQLQKTYDRCPLELVRCIRHILYNEQRLVREANNCSSPAGILVDAMSQKHLQINQTFEELRLVTQDTENELKKLQQTQEYFIIQYQESLRIQAQFAQLAQLSPQERLSRETALQQKQVSLEAWLQREAQTLQQYRVELAEKHQKTLQLLRKQQTIILDDELIQWKRRQQLAGNGGPPEGSLDVLQSWCEKLAEIIWQNRQQIRRAEHLCQQLPIPGPVEEMLAEVNATITDIISALVTSTFIIEKQPPQVLKTQTKFAATVRLLVGGKLNVHMNPPQVKATIISEQQAKSLLKNENTRNECSGEILNNCCVMEYHQATGTLSAHFRNMSLKRIKRADRRGAESVTEEKFTVLFESQFSVGSNELVFQVKTLSLPVVVIVHGSQDHNATATVLWDNAFAEPGRVPFAVPDKVLWPQLCEALNMKFKAEVQSNRGLTKENLVFLAQKLFNNSSSHLEDYSGLSVSWSQFNRENLPGWNYTFWQWFDGVMEVLKKHHKPHWNDGAILGFVNKQQAHDLLINKPDGTFLLRFSDSEIGGITIAWKFDSPERNLWNLKPFTTRDFSIRSLADRLGDLSYLIYVFPDRPKDEVFSKYYTPVLAKAVDGYVKPQIKQVVPEFVNASADAGGSSATYMDQAPSPAVCPQAPYNMYPQNPDHVLDQDGEFDLDETMDVARHVEELLRRPMDSLDSRLSPPAGLFTSARGSLS
notes: as for B1

binding result (Beta-catenin): binds
B3: E-cadherin (other, UniProt P12830 155-882, looked up)
chain: DWVIPPISCPENEKGPFPKNLVQIKSNKDKEGKVFYSITGQGADTPPVGVFIIERETGWLKVTEPLDRERIATYTLFSHAVSSNGNAVEDPMEILITVTDQNDNKPEFTQEVFKGSVMEGALPGTSVMEVTATDADDDVNTYNAAIAYTILSQDPELPDKNMFTINRNTGVISVVTTGLDRESFPTYTLVVQAADLQGEGLSTTATAVITVTDTNDNPPIFNPTTYKGQVPENEANVVITTLKVTDADAPNTPAWEAVYTILNDDGGQFVVTTNPVNNDGILKTAKGLDFEAKQQYILHVAVTNVVPFEVSLTTSTATVTVDVLDVNEAPIFVPPEKRVEVSEDFGVGQEITSYTAQEPDTFMEQKITYRIWRDTANWLEINPDTGAISTRAELDREDFEHVKNSTYTALIIATDNGSPVATGTGTLLLILSDVNDNAPIPEPRTIFFCERNPKPQVINIIDADLPPNTSPFTAELTHGASANWTIQYNDPTQESIILKPKMALEVGDYKINLKLMDNQNKDQVTTLEVSVCDCEGAAGVCRKAQPVEAGLQIPAILGILGGILALLILILLLLLFLRRRAVVKEPLLPPEDDTRDNVYYYDEEGGGEEDQDFDLSQLHRGLDARPEVTRNDVAPTLMSVPRYLPRPANPDEIGNFIDENLKAADTDPTAPPYDSLLVFDYEGSGSEAASLSSLNSSESDKDQDYDYLNEWGNRFKKLADMYGGGEDD
notes: Endogenous protein in fixed MCF-7 cells, detected through a primary antibody and oligonucleotide-conjugated secondary antibodies (in situ PLA)

Reference: patent publication US20260103748A1 (NAVINCI DIAGNOSTICS, published 2026)
